According to article PMC11320570 (ACS Infectious Diseases, 2024):

B1: 3H5 mouse antibody (antibody, V domains shown)
VH: QVQLQQSGAEVARPGASVKLSCKASGYTFTSYWLQWVKQRPGQGLEWIGAIWPGDDDTRYAQKFQGKATMTADKSSSTAYIQLSNLASEDSAVYYCARKGGFAMDYWGQGTSVTVSS
VL: NIVMTQSPTSLAVSLGQRATISCRASESVDSFGKSFMHFYQQKPGQPPKLLIHLASNLESGVPARFTGRGSRTDFTLTIDPVEADDAATYYCQQNNEVPFTFGSGTKLEVK
B2: 2C8 mouse antibody (antibody, V domains shown)
VH: EVKLVESGGGLVQPGGSLSLSCAASGFTFTDYYMTWVRQPPGKALEWLALIRNKASGYTTEYSASVKGRFTISRDNSQSILYLQMNALRAEDSATYYCTRAKWDGHYFDYWGQGTTLTVSS
VL: DIQMTQSPASLSVSVGETVTITCRATKNIYNNLAWYQQKQGRSPQLLVYAATNLADGVPSRFSGSGSGTQFSLRINSLQSEDFGNYYCQHFWHTPWTFGGGTKLEIK
notes: Mouse IgG2a; source: hybridoma culture supernatant, purified (HiTrap protein-G HP)
B3: 513 engineered and humanized antibody (antibody, V domains shown)
VH: QVQLVQSGAEVKKPGASVKVSCKAGFNIKDVYMSWVRQAPEQGLEWMGRIDPENGDTKYDPKLQGRVTMTADTSTNTAYMELRSLRSDDTAVYYCARGWEGFAYWGQGTLVTVSS
VL: DIVMTQSPASLAVSLGQRATISCRASENVDKYGNSFMHWYQQKPGQPPKLLIYRASELQWGVPDRFSGSGSGTDFTLTISSLQAEDVAVYYCQRSNEVPWTFGQGTKLEIK

Tests used:
[1] = target: DENV-2 EDIII wild-type Fc-fusion antigen (Dengue virus type 2, strain 16681, UniProt P29990); test: ELISA; conditions: both partners purified
[2] = target: deglycosylated EDIII WT Fc-fusion antigen (Dengue virus type 2, strain 16681, UniProt P29990); test: ELISA; conditions: both partners purified

| Binder | binding result [1] | binding result [2] |
| --- | --- | --- |
| B1 | binds | binds |
| B2 | binds | – |
| B3 | binds | – |
